Our source for the Kd values is the Immune Epitope Database (IEDB).

The target of test [1] is HLA-A*01:01. The experiment in a line: IEDB peptide-MHC binding, purified MHC/direct/fluorescence; filed as Kd, often an IC50 or EC50 that approximates it; ≥ and ≤ were set here for values at or beyond the usual limits of such assays.
Test [2] concerns the target HLA-A*02:01. The description is as above.
Test [3] deals with HLA-A*03:01. Described as above.
In test [4] the target is HLA-A*11:01. Described as above.
The target of test [5] is HLA-A*24:03. Described as above.
The target of test [6] is HLA-A*26:01. The description is as above.
Test [7] concerns the target HLA-A*30:01. Described as above.
Test [8] addresses HLA-A*31:01. Described as above.
Test [9] addresses HLA-A*69:01. The description is as above.
The target of test [10] is HLA-B*07:02. The description is as above.
Test [11] concerns the target HLA-B*08:01. The description is as above.
In test [12] the target is HLA-B*15:01. The description is as above.
Test [13] concerns the target HLA-B*27:05. The test is described as above.
For test [14], the target named is HLA-B*40:01. Described as above.
Test [15] addresses HLA-B*44:02. Described as above.
The target in test [16] is HLA-B*58:01. The description is as above.
Test [17] addresses HLA-A*29:02. The test is described as above. To be noted: source organism: Entamoeba histolytica HM-1:IMSS.
Test [18] has as its target HLA-B*18:01. Described as above. To be noted: source organism: Entamoeba histolytica HM-1:IMSS.
The target in test [19] is HLA-B*57:01. The description is as above. The settings on record: source organism: Entamoeba histolytica HM-1:IMSS.
In test [20] the target is HLA-A*29:02. The experiment in a line: IEDB peptide-MHC binding, purified MHC/competitive/fluorescence; filed as Kd, often an IC50 or EC50 that approximates it; ≥ and ≤ were set here for values at or beyond the usual limits of such assays. The settings on record: source organism: Brucella canis ATCC 23365.
[21] abbreviates: source organism: La Crosse virus.
The mark [22] stands for this setting: source organism: Rickettsia conorii.
Where [23] appears, read: source organism: Rickettsia sibirica.
Setting [24] is: source organism: Entamoeba histolytica HM-1:IMSS.
[25] abbreviates: source organism: Campylobacter jejuni.

As to YRKPSGGVF, the Kd (in general, the concentration at which binding is half-saturated) in test [1] (setting [21]) is at least 20 µM; in test [2] (setting [21]), at least 20 µM; in [3] (setting [21]), at least 20 µM; in test [4] (setting [21]), at least 20 µM; in test [5] (setting [21]), 4.78 µM; in test [6] (setting [21]) it was at least 20 µM. In addition, the Kd in test [7] (setting [21]) was at least 20 µM; in [8] (setting [21]) it was at least 20 µM; in test [9] (setting [21]) it was at least 20 µM; in [10] (setting [21]), 6.06 µM; in test [11] (setting [21]), 0.166 µM; in test [12] (setting [21]) it was 0.797 µM. Further, the Kd was 0.232 µM in test [13] (setting [21]), at least 20 µM in test [14] (setting [21]), at least 20 µM in [15] (setting [21]) and at least 20 µM in test [16] (setting [21]).
As to RTGDIGCFK, the Kd in [1] (setting [22]) was at least 20 µM; in test [2] (setting [22]), at least 20 µM; in test [3] (setting [23]), 0.836 µM; in [4] (setting [23]), 0.0688 µM; in test [5] (setting [22]), at least 20 µM; in test [6] (setting [22]), at least 20 µM. In addition, the Kd in test [7] (setting [23]) was 0.0355 µM; in test [8] (setting [23]), 0.223 µM; in test [9] (setting [22]), at least 20 µM; in test [10] (setting [22]), at least 20 µM; in [11] (setting [22]), at least 20 µM; in [12] (setting [22]) it was at least 20 µM. The dissociation constant (Kd) in test [13] (setting [22]), in [14] (setting [22]), in [15] (setting [22]) and in test [16] (setting [22]) was at least 20 µM in each case.
With ETMKPAAMV, the Kd is at least 20 µM in [1] (setting [24]); at least 20 µM in [2] (setting [24]); at least 20 µM in test [17]; at least 20 µM in test [7] (setting [24]); 0.0015 µM in [9] (setting [24]); at least 20 µM in [10] (setting [24]). Also, the Kd in test [12] (setting [24]), in [18], in [14] (setting [24]), in test [15] (setting [24]), in test [19] and in [16] (setting [24]) was at least 20 µM each time.
Regarding SFGAGTLAK, the Kd in test [1] (setting [25]) is at least 20 µM; in test [2] (setting [25]), at least 20 µM; in test [3] (setting [25]) it was 1.97 µM; in [4] (setting [25]), 0.383 µM; in [5] (setting [25]), at least 20 µM; in test [6] (setting [25]), at least 20 µM. Also, the Kd in test [7] (setting [25]) was 0.0186 µM; in [8] (setting [25]) it was 3.9 µM; in test [9] (setting [25]) it was at least 20 µM; in test [10] (setting [25]), at least 20 µM; in [11] (setting [25]), at least 20 µM; in test [12] (setting [25]), at least 20 µM. For the same sequence, the Kd in test [13] (setting [25]), in [14] (setting [25]), in test [15] (setting [25]) and in test [16] (setting [25]) was at least 20 µM throughout.
In turn, QWALLPYLF returned a Kd in test [20] of at most 0.0001 µM.
